Measurements taken from US7906119 (Human Genome Sciences, dated 2011).

Target: PA heptamer (Bacillus anthracis, UniProt P13423 197-764)
Experiment: BIAcore; PA heptamer immobilized on CM5 chip, IgG1 in solution

PA heptamer, sequence (P13423 197-764): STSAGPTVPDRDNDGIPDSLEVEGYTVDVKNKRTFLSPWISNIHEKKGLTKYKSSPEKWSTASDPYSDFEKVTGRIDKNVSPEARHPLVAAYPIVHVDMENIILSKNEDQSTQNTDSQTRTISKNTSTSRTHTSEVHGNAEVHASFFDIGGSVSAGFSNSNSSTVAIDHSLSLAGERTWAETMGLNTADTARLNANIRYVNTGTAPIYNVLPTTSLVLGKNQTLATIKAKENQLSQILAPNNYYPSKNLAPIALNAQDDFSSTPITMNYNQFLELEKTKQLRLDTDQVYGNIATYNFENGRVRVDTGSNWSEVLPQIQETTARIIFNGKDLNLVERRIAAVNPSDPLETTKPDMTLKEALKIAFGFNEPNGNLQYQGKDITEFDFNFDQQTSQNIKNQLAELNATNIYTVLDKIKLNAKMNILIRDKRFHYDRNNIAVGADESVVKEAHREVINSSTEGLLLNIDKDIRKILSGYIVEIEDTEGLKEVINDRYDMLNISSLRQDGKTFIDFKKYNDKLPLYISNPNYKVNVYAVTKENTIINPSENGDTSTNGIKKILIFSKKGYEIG

B1: PWD0283 (IgG1 format) (antibody, V domains shown)
VH: EVQLLESGGGLVQPGGSLRLSCAASGFTFSSYATSWVRQAPGKGLEWVSAISGSGGSTYYADSVKGRFTISRDNSKNTLYLQMNSLRAEDTAVYYCARVGGAIRFDSWGRGTLVTVSS
VL: SYELTQPPSASETPGQRVSISCSGGTSNIGSNTINWYQQVPGTAPKLLIYFNNRRPAGVPARFSASKSGTSASLTISGLQSEDEADYYCSAWDDSLSGVVFGGGTKLTVLG
  Kd: 0.187 nM
  koff: 0.000426 s⁻¹
  kon: 2.28e+06 M⁻¹ s⁻¹
